3 molecules from patent US20260242489A1 (HUAHUI HEALTH, published 2026) can be followed below.

Test [1] deals with T1, hEGFR ECR-His6-Avi-Biotin (human, UniProt P00533 25-642, biotinylated on the Avi tag using BirA ligase).
T1 construct: also called WT hEGFR ECR; human EGFR ECD; not shown: His6-Avi tag
Put plainly: ELISA: G5V2 IgG1 coated on plate, antigen titrated, HRP-labeled His-Tag antibody; pH 7.4. Background: An ELISA detects its analyte on a solid surface through an enzyme-linked reagent.

Test [2] deals with T2, hEGFR ECR H370A (human, UniProt P00533 25-642). The test is described as above.
Test [3] has as its target human EGFR domain III (human) (UniProt P00533). Nature of the test: ELISA: antibody coated on plate, hEGFR domain III titrated (Log[Ag] nM), detected through its His tag; pH not given [table].
For test [4], the target named is T1, hEGFR ECR-His6-Avi-Biotin. Put plainly: ELISA: hEGFR ECR on plate, IgG1 titrated, anti-hFc-HRP; EC50 at pH 7.4 over EC50 at pH 6.5 [table].
Test [5] has as its target T1, hEGFR ECR-His6-Avi-Biotin. Nature of the test: ELISA: hEGFR ECR on plate, IgG1 titrated, anti-hFc-HRP; pH 7.4 [table].
Test [6] deals with T1, hEGFR ECR-His6-Avi-Biotin. Put plainly: ELISA: hEGFR ECR on plate, IgG1 titrated, anti-hFc-HRP; EC50 at pH 7.4 over EC50 at pH 6.5 [table]. The source holds these as a separate data set.
For test [7], the target named is T1, hEGFR ECR-His6-Avi-Biotin. Nature of the test: ELISA: hEGFR ECR on plate, IgG1 titrated, anti-hFc-HRP; pH 6.5 [table].
Test [8] deals with T3, mEGFR ECR (His6-Avi-tagged) (mouse, UniProt Q01279 25-644).
T3 construct: also called mouse EGFR; not shown: His6-Avi tag
Nature of the test: IgG1 ELISA at pH 6.5, mEGFR ECR against hEGFR ECR.

Test [9] has as its target T3, mEGFR ECR (His6-Avi-tagged). Nature of the test: ELISA: mEGFR ECR on plate, IgG1 titrated, anti-hFc-HRP; EC50 at pH 7.4 over EC50 at pH 6.5 [table].
The target of test [10] is T1, hEGFR ECR-His6-Avi-Biotin. Nature of the test: ELISA: antibody coated on plate, hEGFR ECR titrated (Log[Ag] nM), detected through its His tag; pH not given [table].
The target of test [11] is T1, hEGFR ECR-His6-Avi-Biotin. Put plainly: ELISA: hEGFR ECR on plate, IgG1 titrated, anti-hFc-HRP; pH 6.5 [table]. The source holds these as a separate data set.
The target of test [12] is T3, mEGFR ECR (His6-Avi-tagged). Nature of the test: ELISA: mEGFR ECR on plate, IgG1 titrated, anti-hFc-HRP; pH 6.5 [table].
Test [13] has as its target T1, hEGFR ECR-His6-Avi-Biotin. Nature of the test: ELISA: G5V2 IgG1 coated on plate, antigen titrated, HRP-labeled His-Tag antibody; pH 7.4. This is another data set of the same source.
In test [14] the target is T3, mEGFR ECR (His6-Avi-tagged). Nature of the test: ELISA: mEGFR ECR on plate, IgG1 titrated, anti-hFc-HRP; pH 7.4 [table].
Test [15] concerns the target T1, hEGFR ECR-His6-Avi-Biotin. Nature of the test: ELISA: hEGFR ECR on plate, IgG1 titrated, anti-hFc-HRP; pH 7.4 [table]. The source holds these as a separate data set.
Test [16] has as its target T1, hEGFR ECR-His6-Avi-Biotin. Nature of the test: phage display Fab ELISA on hEGFR ECR, pH 6.5.
Test [17] concerns the target T1, hEGFR ECR-His6-Avi-Biotin. Put plainly: phage display Fab ELISA on hEGFR ECR.
The target in test [18] is T1, hEGFR ECR-His6-Avi-Biotin. Nature of the test: phage display Fab ELISA on hEGFR ECR, pH 6.5 and pH 7.4.
Test [19] deals with T1, hEGFR ECR-His6-Avi-Biotin. Nature of the test: phage ELISA: hEGFR ECR on plate, phage display Fab titrated, anti-M13-HRP; EC50 at pH 7.4 over EC50 at pH 6.5 [table].
Test [20] concerns the target T1, hEGFR ECR-His6-Avi-Biotin. Put plainly: competition ELISA: hEGFR ECR on plate, IgG1 titrated in a mixture with EGF-mFc, bound EGF-mFc detected with anti-mFc-HRP; pH 6.0 [left panel].
The target of test [21] is T2, hEGFR ECR H370A. Put plainly: ELISA: hEGFR ECR H370A on plate, IgG1 titrated, anti-hFc-HRP; pH 6.5 [table].
The target of test [22] is T1, hEGFR ECR-His6-Avi-Biotin. Nature of the test: ELISA: hEGFR ECR on plate, IgG1 titrated, anti-hFc-HRP; pH 6.0 [left panel].
Test [23] addresses T1, hEGFR ECR-His6-Avi-Biotin. Put plainly: ELISA: WT hEGFR ECR on plate, IgG1 titrated, anti-hFc-HRP; pH 6.5 [table].
The target in test [24] is T1, hEGFR ECR-His6-Avi-Biotin. Put plainly: ELISA: hEGFR ECR on plate, IgG1 titrated, anti-hFc-HRP; pH 7.4 [left panel].
For test [25], the target named is hEGFR ECR H433A (human, UniProt P00533 25-642). Nature of the test: ELISA: hEGFR ECR H433A on plate, IgG1 titrated, anti-hFc-HRP; pH 6.5 and pH 7.4.
For test [26], the target named is T2, hEGFR ECR H370A. Nature of the test: ELISA: hEGFR ECR H370A on plate, IgG1 titrated, anti-hFc-HRP; pH 7.4 [table].
Test [27] has as its target T2, hEGFR ECR H370A. Put plainly: ELISA: hEGFR ECR H370A on plate, IgG1 titrated, anti-hFc-HRP; EC50 at pH 7.4 over EC50 at pH 6.5 [table].
For test [28], the target named is T2, hEGFR ECR H370A. Put plainly: IgG1 ELISA, pH 6.5 and pH 7.4 (EC50 ratio pH 7.4/pH 6.5).
In test [29] the target is T1, hEGFR ECR-His6-Avi-Biotin. Put plainly: ELISA: WT hEGFR ECR on plate, IgG1 titrated, anti-hFc-HRP; EC50 at pH 7.4 over EC50 at pH 6.5 [table].
In test [30] the target is T1, hEGFR ECR-His6-Avi-Biotin. Nature of the test: ELISA: WT hEGFR ECR on plate, IgG1 titrated, anti-hFc-HRP; pH 7.4 [table].

Where two headings read alike, the source gives them in different places.

B1: G5V2 (human IgG1 form) (antibody, V domains shown)
VH: QVQLVQSGAEVKRPGSSVKVSCKASGGISDGSAISWVRQAPGQGLEWMGGIYFFNGNTNYAQKFQGRVTITADESTSTAYMELSSLRSEDTAVYYCARDSSLGYYDYFDYWGQGTLVTVSS
VL: QPVLTQPPSVSAAPGQTARITCGGNNIGEKYVQWYQQRPGQAPVLVIYYDDDRPSGIPERFSGSNSGNTAALTINSVEAGDEADYYCQAWDDYDPVVFGGGTQLTVLG
Regarding B1, the half-maximal effective concentration (EC50 (read off the curve)) (as a rule, the midpoint of the concentration-response curve) in test [1] is ~3 nM; in test [2] it was ~3 nM; in test [13], ~2 nM. Further, the EC50 (usually the concentration giving half of the maximal effect) in [3] worked out at 2.37 nM; in [5] it was 0.031 nM; in [7], 0.502 nM; in test [10], 1.24 nM; in test [11] it was 0.03 nM; in test [12] it was 0.037 nM. Moreover, the EC50 worked out at 0.046 nM in test [14] and 0.595 nM in [15]. Besides, the entries for the “EC50 ratio (pH 7.4/pH 6.5)” value in test [4], in [6] and in [9] were 1.03, 1.19 and 1.24, respectively. Further, in test [8], the “EC50 ratio, mEGFR/hEGFR (pH 6.5)” value was determined as 1.23.

B2: G5V2 Y32E (phage display Fab form) (Fab, V domains shown)
VH: QVQLVQSGAEVKRPGSSVKVSCKASGGISDGSAISWVRQAPGQGLEWMGGIYFFNGNTNYAQKFQGRVTITADESTSTAYMELSSLRSEDTAVYYCARDSSLGYYDYFDYWGQGTLVTVSS
VL: QPVLTQPPSVSAAPGQTARITCGGNNIGEKEVQWYQQRPGQAPVLVIYYDDDRPSGIPERFSGSNSGNTAALTINSVEAGDEADYYCQAWDDYDPVVFGGGTQLTVL
notes: Y32 is Kabat numbering
In the case of B2, in test [16], the “fold decrease of binding affinity at pH 6.5 against G5V2” value was ~8 fold. In addition, the “fold higher binding affinity over G5V2 Y32D” value in test [17] was ~3 fold. For the same molecule, the “fold higher pH-dependent binding over WT G5V2” value in test [18] is ~13 fold. In test [19], the “EC50 ratio (pH 7.4/pH 6.5)” value worked out at 15.6.

B3: 14C07 (full-length human IgG1 form) (antibody, V domains shown)
VH: QVQLVQSGAEVKRPGSSVKVSCKASGGTFSSYAISWVRQAPGQGLEWMGGIIPIFGTANYAQKFQGRVTITADESTSTAYMELSSLRSEDTAVYYCARDSSSGWYDYFDYWGQGTLVTVSS
VL: QPVLTQPPSVSAAPGAMARITCESPDIGSKSVQWYQQRPGQAPILVIYYDDDRPSGIPERFSGSNSGNTAALTINWVEPEDEADYYCQAWDDSDPVVFGGGTQLTVLG
For the molecule B3, the IC50 (as a rule, the point on the concentration scale where inhibition reaches its midpoint) in [20] stood at 29 nM. For the same molecule, the “EC50 ratio (pH 7.4/pH 6.5)” value was 3.23 in test [4], 6.52 in [9], 1.07 in test [27] and 2.72 in test [29]. In addition, the EC50 in test [5] amounted to 0.155 nM; in test [21], 0.433 nM; in [22], 0.02 nM; in test [23] it was 0.301 nM; in test [24], 0.662 nM; in [11], 0.048 nM. The EC50 in test [26] was determined as 0.462 nM; in test [12], 0.419 nM; in test [30], 0.818 nM; in [14] it was 2.73 nM. Moreover, the “EC50 ratio, mEGFR/hEGFR (pH 6.5)” value in [8] was 8.73. For the same molecule, in test [25], the binding result was “no binding (tested: 100 nM (Log[Ab] 2))”. The “fold weaker pH-dependency of binding than with WT EGFR ECR” value in [28] is > 2 fold.
